For one assay, the target named is T1, CD73-ND-his (human, UniProt P21589 27-317).
T1 construct: Biotinylated and captured on streptavidin in the ELISA
T1 sequence: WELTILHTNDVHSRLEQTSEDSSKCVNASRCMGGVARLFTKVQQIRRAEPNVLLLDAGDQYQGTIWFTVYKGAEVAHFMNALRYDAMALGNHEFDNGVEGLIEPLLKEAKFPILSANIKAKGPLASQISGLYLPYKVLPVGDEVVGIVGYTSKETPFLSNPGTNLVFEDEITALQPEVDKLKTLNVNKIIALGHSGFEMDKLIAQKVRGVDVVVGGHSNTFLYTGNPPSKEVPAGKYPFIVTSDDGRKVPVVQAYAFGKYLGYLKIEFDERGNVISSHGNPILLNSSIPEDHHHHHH
Description: ELISA as in Example 3, antigen CD73-ND-his, antibody titrated, absorbance 450 nm. (ELISA stands for enzyme-linked immunosorbent assay.)

The target of assay [1] is T2, human CD73-His protein (human, UniProt P21589 27-549).
T2 construct: Expressed in HEK-293F with a signal peptide that is not specified; In the ELISAs it was biotinylated with EZ-Link NHS-Biotin (CD73-biotin) and captured on streptavidin; in SPR and the enzyme assay it was used as CD73-His; also called CD73-his antigen; CD73-biotin
T2 sequence: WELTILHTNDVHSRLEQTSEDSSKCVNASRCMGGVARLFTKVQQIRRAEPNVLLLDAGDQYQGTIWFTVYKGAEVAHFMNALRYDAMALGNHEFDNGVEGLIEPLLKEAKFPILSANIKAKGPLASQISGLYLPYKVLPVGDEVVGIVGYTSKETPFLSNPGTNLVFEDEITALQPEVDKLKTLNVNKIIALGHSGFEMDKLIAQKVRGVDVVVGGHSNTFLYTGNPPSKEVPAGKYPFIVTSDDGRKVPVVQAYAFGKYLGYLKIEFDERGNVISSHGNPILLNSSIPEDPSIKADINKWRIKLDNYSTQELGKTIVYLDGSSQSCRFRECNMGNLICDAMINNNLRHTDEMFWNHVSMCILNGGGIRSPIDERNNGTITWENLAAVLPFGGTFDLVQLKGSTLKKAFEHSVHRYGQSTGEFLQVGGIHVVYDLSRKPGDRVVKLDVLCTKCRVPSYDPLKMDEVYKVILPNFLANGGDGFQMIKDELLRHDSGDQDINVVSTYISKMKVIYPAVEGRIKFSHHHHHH
Description: ELISA, biotinylated CD73-His on streptavidin plate. On the procedure: (§1) The ELISA plates were coated with SA protein diluted to 1.5 μg/mL in coating buffer (50 mM carbonate coating buffer, pH 9.6) and incubated overnight at 4° C. The supernatant was discarded, and the plates were washed three times with PBST. Then, 5% skimmed milk powder prepared with PBS was added for blocking and the plates were incubated for 2 h at 37° C. After washing the plates once with PBST, CD73-biotin protein (prepared by biotinylating CD73-His protein according to the EZ-Link NHS-Biotin Reagent instructions) was diluted to 0.5 μg/mL and added at 100 μL/well for incubation at room temperature for 1 h. The plates were washed three times with PBST, and the prepared murine-derived monoclonal antibodies against human CD73 were serially diluted with 1% BSA buffer prepared with PBST and added to the ELISA plates at 100 μl/well. The plates were incubated at 37° C. for 1 h. After washing the plates three times with PBST, HRP-labeled goat anti-mouse IgG secondary antibody was added and the plates were incubated for 30 min at 37° C. After washing the plates three times with PBST, the residual droplets were patted dry on absorbent paper as much as possible. Then, 100 μl of TMB color developing solution was added to each well, and the plates were incubated in the dark at room temperature for 5 min for color development. Subsequently, 50 μl of 2M H₂SO₄ stop solution was added to each well to terminate the substrate reaction. The OD values were read at 450 nm using a multimode microplate reader to analyze the binding ability of the tested antibodies to the target antigen human CD73-His.
The binding affinity of various humanized antibodies to human CD73-his protein was measured with reference to Example 3.

For assay [2], the target named is T2, human CD73-His protein. The assay is described as follows: cell-based or functional assay.
The target of assay [3] is T3, cynomolgus monkey CD73 protein (cynomolgus monkey, UniProt A0A2K5V5U7 27-547).
T3 construct: Bought protein; also called CD73-cynomolgus monkey
T3 sequence: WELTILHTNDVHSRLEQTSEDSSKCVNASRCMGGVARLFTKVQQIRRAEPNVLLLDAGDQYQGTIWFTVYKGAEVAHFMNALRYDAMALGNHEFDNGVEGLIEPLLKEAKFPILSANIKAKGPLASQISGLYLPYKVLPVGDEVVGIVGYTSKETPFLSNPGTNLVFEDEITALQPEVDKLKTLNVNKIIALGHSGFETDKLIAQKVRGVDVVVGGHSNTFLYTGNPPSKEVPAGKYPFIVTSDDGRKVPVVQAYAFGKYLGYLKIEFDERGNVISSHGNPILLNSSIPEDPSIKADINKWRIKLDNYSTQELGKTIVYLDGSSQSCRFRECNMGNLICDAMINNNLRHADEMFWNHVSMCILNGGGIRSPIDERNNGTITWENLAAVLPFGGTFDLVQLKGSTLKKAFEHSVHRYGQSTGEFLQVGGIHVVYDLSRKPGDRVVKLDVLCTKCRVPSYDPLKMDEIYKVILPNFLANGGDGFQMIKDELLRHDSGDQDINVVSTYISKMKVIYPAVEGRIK
The assay is described as follows: SPR Biacore 8K, antibody captured on Protein A/G, antigen in flow. On the technique in general: In SPR one partner is held on a chip, and binding of the other changes the refractive index at the surface.

Another assay concerns the target T4, CD73-ND-Y135A (human, UniProt P21589 27-317).
T4 construct: Alanine mutant of CD73-ND
T4 sequence: T1 sequence with Y135A
Description: ELISA; decline multiple of Top against CD73-ND. On the procedure:
as §1
Referring to the experimental method in Example 3, the affinity of 48A11-HuV33 for various mutant proteins of CD73-ND was determined. The SA protein was diluted to 1 μg/mL for coating the ELISA plates, and the biotinylated CD73 protein (CD73-biotin) was used at a concentration of 0.1 μg/mL.

Positions count from the first letter of the chain named.

B1: 56B10-HuV31 (antibody, human IgG4, V domains shown)
VH: QVQLQQSGAEVKKPGASVKVSCKASGYTFTRYYIYWVRQRPGQGLEWIGWIYPGNFNTKYNEKFKGRATLTADTSASTAYMELSSLTSEDTAVYYCARDVYDYAGFAYWGQGTLVTVSS
VL: DIQLTQSPSFLSASVGDRVTITCKASQGVATAVAWYQQKPGQSPKLLIYWASTRHTGVPDRFSGSGSGTEFTLTISSLQPEDFATYYCQQYSSYPWTFGQGTKVEIK
notes: Humanized
A word on the EC50 (read off the curve): it is the concentration at which the effect is half-maximal. For orientation: EC50 means the concentration that produces a half-maximal response. Usually Kd stands for the concentration at which binding is half-saturated. For orientation: koff means the rate constant with which the complex falls apart. As a reminder, the kon is the rate constant with which the complex forms. In the case of B1, in the assay with CD73-ND-his, the “EC50 (read off the curve)” value was roughly 0.08 nM. For the same molecule, in the assay with human CD73-His protein [1], the EC50 was found to be 0.079 nM. In addition, in the assay with human CD73-His protein [2], the “IC50 (nM), inhibition of enzyme activity of soluble CD73-His (AMP/ATP, Cell Titer-Glo)” value is 3.66 nM. Besides, in assay [3], binding was characterised by a dissociation constant (Kd) of 7.13 nM, the koff was found to be 0.000712 s⁻¹ and the kon is 99900 M⁻¹ s⁻¹.

B2: 48A11-HuV33 (antibody, human IgG4, V domains shown)
VH: QVQLVQSGAEVKKPGASVKVSCKASGYTFTSYWMHWVRQAPGQGLEWIGEINPSIGRTNYNEKFKSRVTLTRDTSTSTAYMELSSLRSEDTAVYYCARRVYGTMDYWGQGTLVTVSS
VL: DIQMTQSPSSLSASVGDRVTITCKASQDINSYLSWFQQKPGKSPKLLIYRANIWVDGVPSRFSGSGSGQDYTFTISSLQPEDIATYYCLQYDELYTFGQGTKVEIK
notes: Humanized
Consider B2, for which the “Ratio(Top)” value in the assay with CD73-ND-Y135A turned out to be 1.1 fold. The molecule also showed an EC50 with human CD73-His protein [1] of 0.069 nM. In addition, the “IC50 (nM), inhibition of enzyme activity of soluble CD73-His (AMP/ATP, Cell Titer-Glo)” value with human CD73-His protein [2] is 4.27 nM. In addition, in assay [3], the affinity, expressed as Kd, was 12.1 nM; the koff turned out to be 0.000883 s⁻¹; the kon worked out at 72800 M⁻¹ s⁻¹.

Values taken from patent US20250066499A1 (SUNSHINE GUOJIAN PHARMACEUTICAL SHANGHAI, published 2025).
